Measured values: patent publication US20230295310A1 (ABCELLERA BIOLOGICS, published 2023)
Positions count from the first letter of the chain named.

B1: mAb 63 (antibody, V domains shown)
VH: QVQLVQSGAEVRKPGASVKVSCKASGYTFTGNHMHWVRQAPGQGLEWMGWINPKSGRTNFAQNFQGRVTMTRDTSISTAFMELSRLRSDDTAVYYCARMGDLLLFDFWGQGTLVTVSS
VL: not shown
B2: mAb 45 (antibody, V domains shown)
VH: QAQLVQSGSELKKPGASVKVSCKASGYTFTKHSMNWVRQAPGQGLEWMGWINTNTGNPMYGQGFTGRFVFSLDTSMTTTYLQISSLKAEDTAIYYCAREGDYDLWRGFFNFDYWGQGTLVTVSS
VL: DIQMTQSPSSLSASVGDRVTITCRASQGIRNDLGWYQQKPGKAPKRLIYAASSLQSGVPSRFSGSGSGAEFTLTISSLQPEDFATYYCLQHNSYPRTFGQGTKVEIK
B3: mAb 48 (antibody, V domains shown)
VH: QVQLVQSGAEVKKPGASVKVSCKASGYTFTGYYIHWVRQAPGQGLEWMGWINPKSGNRNYAQKFQGRVTMTRDTSIDTAYMELTRLRSDDTAVYYCARIEQLVFDYWGQGTLVTVSS
VL: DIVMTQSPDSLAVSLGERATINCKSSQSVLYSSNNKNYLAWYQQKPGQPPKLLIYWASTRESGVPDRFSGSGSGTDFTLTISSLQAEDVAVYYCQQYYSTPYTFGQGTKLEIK
B4: mAb 64 (antibody, V domains shown)
VH: QVQLMPSGAEVKEPGASVKVSCKASGYTFTGYYMHWVRQAPGQGLEWMGWINPNSGRTSYAKNFQGRVTMTRDTSISTAYMELSRLRSDDTAVYYCARIEQLVFDYWGQGTLVTVSS
VL: not shown
B5: mAb 298 (antibody, V domains shown)
VH: EGQLLESGGGLVQPGGSLRLSCAASGFTFSRYAMSWIRQAPGKGLEWVSVINGSGGDKNYADSVKGRFTISRDNSKNSLYLLMNGLRVEDTAIYFCAKKFSYYYYYMDVWGKGTTVTVSS
VL: SYELTQPLSVSVALGQTARITCGGNNIGGKDVHWYQQKPGQAPVLVIYRDSNRPSGIPERFSGSNSGNTATLTISRAQAGDEADYYCQVWDSRTAVFGGGTQLTAL
notes: VH and VL only
B6: mAb 307 (antibody, V domains shown)
VH: EVHLLESGGGMVQPGGSRRLSCAASGFSFRNSAMSWVRQAPGKGLEWVSVIDGRGTTSNYADSVKGRFTISRDNSKNTLYLQMNSLRAEDTAVYYCAKKYSYYYYYMDVWGKGTTVTVSS
VL: B5 VL with G29S, Q102H
notes: VH and VL only
B7: mAb 308 (antibody, V domains shown)
VH: EVQLLESGGGSVQPGGSLRLSCAASGFTFSSYAMNWVRQAPGKGLEWISIISGGRRTGITYYAASVKGRFTISRDNSKNTLYLQMNSLRAEDTAVYYCAKMYNYYYYYIDVWGKGTTVTVSS
VL: B5 VL with G29S, R93N
notes: VH and VL only
B8: mAb 302 (antibody, V domains shown)
VH: B5 VH with K65R
VL: B5 VL
notes: VH and VL only
B9: mAb 293 (antibody, V domains shown)
VH: EVQLLESGGDLVQPGGSLRLSCAASGFTFSRNAVSWVRQAPGRGLEWVSTISGRGDKTNYVDSVKGRFTISRDNSKNTLYLQMNSLRAEDTAVYYCTKMFSYYYYYMDVWGKGTTVTVSS
VL: B5 VL with G29S, R93S
notes: VH and VL only
B10: mAb 317 (antibody, V domains shown)
VH: EVQLLESGGGLVQPGGSLRLSCAASGFTFSSFAMSWVRQAPGKGLEWVSVISGNGDKKNYADSVKGRFTISRDNSKNTLYLQMNSLRAEDTAVYYCAKKYSYYYYYMDVWGKGTTVTVSS
VL: B5 VL with G29S
notes: VH and VL only
B11: mAb 309 (antibody, V domains shown)
VH: B10 VH with V2L, F32Y, D56G, K57N, Y60H
VL: B5 VL with G29S
notes: VH and VL only
B12: mAb 299 (antibody, V domains shown)
VH: B10 VH with L18R, S30R, F32Y, G53I, N54R, K57S, K58T, N59S
VL: B5 VL with G29S
notes: VH and VL only
B13: mAb 305 (antibody, V domains shown)
VH: B10 VH with T28S, M34L, D56G, K57N
VL: B5 VL with T94A
notes: VH and VL only
B14: mAb 313 (antibody, V domains shown)
VH: EVQLLESGGGLVQPGGSLRLSCAASGFTFSSYAMSWVRQAPGKGLEWVSAITGSGRTTYFVDSVKGRFTISRDNSKNTLYLQMNSLRAEDTAVYYCAKKFSYYYYYMDVWGKGTTVTVSS
VL: B5 VL with G29S, S92R, R93K, T94I
notes: VH and VL only
B15: mAb 315 (antibody, V domains shown)
VH: B10 VH with L18R, F32Y, S52N, G53T, N54R, K57S, K58T, N59S
VL: B5 VL with G29S
notes: VH and VL only
B16: mAb 320 (antibody, V domains shown)
VH: QVQLVESGGGVVQPGRSLRLSCAASGFTFRSYGMHWVRQAPGKGLEWVAIIWYDGSKKYYADSVKGRFTISRDNSKNILYLQMNSLRAEDTAVYYCARQEFNWNDGGYYYMDVWGKGTTVTVSS
VL: DIQLTQSPSFLSASVGDRVTITCRASQGISSYLDWCQQKPGKAPKLLIYAASTLQSGVPSRFSGSGSGTEFTLTISSLQPEDFATYYCQQLDNYPPTFGGGTKVEIK
notes: VH and VL only
B17: mAb 321 (antibody, V domains shown)
VH: QVQLVESGGGVVQPGRSLRLSCVASGFTFRSFGMHWVRQAPGKGLEWVVVISNDGSHKYYVESVKGRFTISRDNSKNTLYLQMNSLRPEDTAVYYCARRDYYGSGMDVWGKGTTVTVSS
VL: SYELTQPPSVSVSPGQTARITCSGDALPKKYAYWYQQKSGQAPVLVIYEDRKRPSGIPERFSGSSSGTMATLTISGAQVEDEADYYCYSTDSSGNHAVFGGGTQLTAL
notes: VH and VL only
B18: mAb 322 (antibody, V domains shown)
VH: B17 VH with F32Y, P88A
VL: B17 VL
notes: VH and VL only

Target: T1, human CD3 expressed on cells (human, UniProt P07766 23-207; P04234 22-171; P09693 23-182)
T1 construct: whole, on cells; CD3 complex on Jurkat cells and on human primary T cells
T1 sequence (P07766 23-207, chain 1 of 3): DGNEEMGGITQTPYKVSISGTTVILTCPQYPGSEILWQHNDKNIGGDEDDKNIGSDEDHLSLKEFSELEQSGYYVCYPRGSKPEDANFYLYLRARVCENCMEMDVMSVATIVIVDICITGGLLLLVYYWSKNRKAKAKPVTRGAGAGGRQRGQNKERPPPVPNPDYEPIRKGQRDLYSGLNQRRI
T1 sequence (P04234 22-171, chain 2 of 3): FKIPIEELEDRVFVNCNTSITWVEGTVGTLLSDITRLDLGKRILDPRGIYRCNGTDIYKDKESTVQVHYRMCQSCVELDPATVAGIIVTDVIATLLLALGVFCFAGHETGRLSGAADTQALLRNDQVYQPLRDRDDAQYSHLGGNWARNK
T1 sequence (P09693 23-182, chain 3 of 3): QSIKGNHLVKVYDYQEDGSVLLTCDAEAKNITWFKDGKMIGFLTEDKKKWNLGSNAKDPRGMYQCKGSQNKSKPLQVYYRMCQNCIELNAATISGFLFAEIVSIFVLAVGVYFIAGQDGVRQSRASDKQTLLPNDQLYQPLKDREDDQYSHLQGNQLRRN
Test: flow cytometry, 25 nM
Outline: (§1)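 Values are fold over isotype: median fluorescence intensity of each antibody relative to isotype control after a 30-minute, 4° C incubation at 25 nM with CD3-bearing cells in PBS containing 2% FBS.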

Row | Human primary T Cell Binding (FOI) | Binder
1 | 0.842 FOI | B1
2 | 0.891 FOI | B2
3 | 1.3 FOI | B3
4 | 0.816 FOI | B4

Target: T2, cynomolgus monkey CD3 (cynomolgus monkey, UniProt Q95LI5 22-198; Q95LI8 22-171; Q95LI7 23-181)
T2 construct: whole, on cells; CD3 on purified cynomolgus monkey CD3 pan T cells; also called cyno CD3; CD3 on cyno primary T cells
T2 sequence (Q95LI5 22-198, chain 1 of 3): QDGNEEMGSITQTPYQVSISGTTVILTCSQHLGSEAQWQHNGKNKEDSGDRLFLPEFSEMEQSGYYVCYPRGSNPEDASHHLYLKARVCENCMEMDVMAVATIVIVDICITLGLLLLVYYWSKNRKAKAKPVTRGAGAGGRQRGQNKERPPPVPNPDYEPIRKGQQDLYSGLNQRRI
T2 sequence (Q95LI8 22-171, chain 2 of 3): as the sequence (P04234 22-171, chain 2 of 3) above, with I5V, N15K, I20V, S32T, D33N, I34N, T64A, S74N, V83L, H141R counted along it
T2 sequence (Q95LI7 23-181, chain 3 of 3): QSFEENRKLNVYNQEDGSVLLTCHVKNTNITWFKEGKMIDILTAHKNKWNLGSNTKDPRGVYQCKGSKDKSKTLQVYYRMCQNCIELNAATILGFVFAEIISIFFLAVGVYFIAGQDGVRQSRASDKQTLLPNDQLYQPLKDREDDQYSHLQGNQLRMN
Test: flow cytometry, cyno primary T cells
Outline: as §1

Row | Binder | binding result
5 | B5 | no binding (tested: FOI ≥10 = positive; 25 nM)
6 | B6 | no binding (tested: FOI ≥10 = positive; 25 nM)
7 | B7 | no binding (tested: FOI ≥10 = positive; 25 nM)
8 | B8 | no binding (tested: FOI ≥10 = positive; 25 nM)
9 | B9 | no binding (tested: FOI ≥10 = positive; 25 nM)
10 | B10 | no binding (tested: FOI ≥10 = positive; 25 nM)
11 | B11 | no binding (tested: FOI ≥10 = positive; 25 nM)
12 | B12 | no binding (tested: FOI ≥10 = positive; 25 nM)
13 | B13 | no binding (tested: FOI ≥10 = positive; 25 nM)
14 | B14 | no binding (tested: FOI ≥10 = positive; 25 nM)
15 | B15 | no binding (tested: FOI ≥10 = positive; 25 nM)
16 | B16 | no binding (tested: FOI ≥10 = positive; 25 nM)
17 | B17 | no binding (tested: FOI ≥10 = positive; 25 nM)
18 | B18 | no binding (tested: FOI ≥10 = positive; 25 nM)

Target: T3, cynomolgus monkey CD3 expressed on primary T cells (cynomolgus monkey, UniProt Q95LI5 22-198; Q95LI8 22-171; Q95LI7 23-181)
T3 construct: whole, on cells; CD3 complex on purified cynomolgus monkey T cells; also called cyno CD3
T3 sequence (Q95LI5 22-198, chain 1 of 3): as the sequence (Q95LI5 22-198, chain 1 of 3) above
T3 sequence (Q95LI8 22-171, chain 2 of 3): as the sequence (P04234 22-171, chain 2 of 3) above, with I5V, N15K, I20V, S32T, D33N, I34N, T64A, S74N, V83L, H141R counted along it
T3 sequence (Q95LI7 23-181, chain 3 of 3): as the sequence (Q95LI7 23-181, chain 3 of 3) above
Test: flow cytometry, 25 nM, cyno primary T cells
Outline: as §1

Row | binding result | Binder
19 | no binding (tested: FOI >=10 = positive) | B1
20 | no binding (tested: FOI >=10 = positive) | B2
21 | no binding (tested: FOI >=10 = positive) | B3
22 | no binding (tested: FOI >=10 = positive) | B4

Target: T1, human CD3 expressed on cells
Test: flow cytometry, 25 nM, Jurkat cells (human primary T cells in c4 also <10)
Protocol: Purified antibodies were confirmed to bind CD3 expressed on cells using the CytoFLEX S or LX flow cytometers (Beckman Coulter). Antibodies were diluted to 25 nM in FACS buffer (PBS+2% FBS) and were incubated with CD3-expressing cells for 30 minutes at 4° C. […] The median fluorescence intensity of the binding signal for each antibody was normalized to the isotype control to obtain a fold over isotype value. An antibody with a fold over isotype (FOI) of ≥10 was considered to be positive for binding.

Row | binding result | Binder
23 | no binding (tested: FOI >=10 = positive) | B1
24 | no binding (tested: FOI >=10 = positive) | B2
25 | no binding (tested: FOI >=10 = positive) | B3
26 | no binding (tested: FOI >=10 = positive) | B4
